Data as given in patent US20030180744A1.

Key:
[1] = biological target: hKGF receptor on the surface of PC-3 prostatic carcinoma cells (UniProt P21802); assay: value used to calculate Ki from IC50 in the PC-3 cell assay (FIG. 12 legend)
[2] = biological target: hKGF receptor on the surface of PC-3 prostatic carcinoma cells (UniProt P21802); assay: saturation binding of 125I-hKGF on PC-3 cells, Scatchard analysis
[3] = biological target: hKGF receptor on the surface of PC-3 prostatic carcinoma cells (UniProt P21802); assay: competition of unlabeled hKGF with 125I-hKGF for binding to PC-3 cells
[4] = biological target: human KGF receptor on transfected NIH3T3 cells (NIH3T3/FGFR-2) (human) (UniProt P21802); assay: competition of unlabeled hKGF with 125I-hKGF for binding to NIH3T3/FGFR-2 cells, with 1 ug/ml heparin
[5] = biological target: hKGF receptor on the surface of PC-3 prostatic carcinoma cells (UniProt P21802); assay: competition of unlabeled hKGF with 125I-hKGF for binding to PC-3 cells, full competition curve

Kd [1]: 0.15 nM
Kd [2]: 0.1 to 0.2 nM
IC50 [3]: 70 nM
Ki [4]: 0.034 nM
Ki [5]: 7.7 nM
B1: Recombinant human Keratinocyte Growth Factor (hKGF) (ligand, UniProt P21781 32-194, looked up)
chain: CNDMTPEQMATNVNCSSPERHTRSYDYMEGGDIRVRRLFCRTQWYLRIDKRGKVKGTQEMKNNYNIMEIRTVAVGIVAIKGVESEFYLAMNKEGKLYAKKECNEDCNFKELILENHYNTYASAKWTHNGGEMFVALNQKGIPVRGKKTKKEQKTAHFLPMAIT
